These results are taken from the DeepSol protein solubility set.

This data set is described as follows: soluble on expression in E. coli; label from the status in PepcDB or PDB records.
Take “MKKISIEERPDWRATAEREGFNFHTIDGERYWDERGYYLFTEQQITRDLEAPTQALHQMCMDAVARVVDSEELLHQLAIPPAFFDVIQTSWKQGHPHLYARFDFAYDGTGPAKMYEINADTPTSLMEAGAFQLLWLEEQMARGVLPAHASQFNSIAEDLVRAFAEFPGASPFYFAAMSGSVEDRVTTDFLRRMAAHVGIDARHIDIEDIGLNDQGRFVDLDGRWIERLFKLHAWEHIFHEAFGKNVTASGTQFVEPAWKAILSNKGILPLLWQFNEGHPNLLPSRVDQDVTKPVPKGWVRKPYFSREGANIEMRTPGDQVIAVDGPYTDAPYILQAYSPLPKFGDSYTLIGSWVIGDLASGIGIREDDSLITKDTSRFLPHVVID”: the “soluble on expression in E. coli” value is listed as “not soluble”.

Consider “MGHHHHHHSHVEIIQKVVVKQILTEASKQELIEYYTEQKRQIEQECDQLHFEQKKMERKSKFQPERVADYFTHELDIRREKKKLIQFQMEQLEVLELGSEIREREMETIIDVQVGDKWDKSIFDKTIVVKDGIIVEIR”, for which the “soluble on expression in E. coli” value is “soluble”. The value for “MGSDKIHHHHHHMNFLKKEPFKIFSMIYLLLDTITNRAGTERAVINLANNLHANGHRVSLVSVCTKEGEPSFQVEKGIEVHHLGIRLYGNALARKTVYFKAYRRIKALYKKREPVLLIGTNIFINTILSQISNRGRIFTIGCEHISYDIARPITKRIRGFLYSGLDAVVALTKRDQQSFEAILRGRSKAYVIPNQVSFTTVQRDATTHKQMLAIGRLTYQKGFEFMIEDASRVLRERPDWKLIIVGDGENESMLRKEIASRNMESQIEIHPSTPEIRKYYESSAIYLMTSRFEGLPMVLLEAEAYALPIISYDCPTGPRELIENGRNGFLVPMEAHEDFADKLRLLMDDETLRKKMGQESELMVKSYSPANIYECWKKLFVEIGYMN” was “not soluble”. In the case of “MGSDKIHHHHHHMVNFLNEGGYVLDFSTADFDAFTYKSIGVPLCETYRLSKGKSLIAYINDTKYEDKIKLLSDLIRYYELSSMKEHDEENRKSRAVAYKKCRSILDKAGGTMVMTATAETLKEAFDSDYISAQIDLMLNLKDGNPTEAIGKAKELIESCCKTILEFEGCTVDKDWEVPRLVDETFKHFHLMPKNISDDVKGAKSIKAILGNLKAIAQGVAELRNLYGSGHGKSSSYKGLESRHASLAIGSSTTLVRFLWDSYERHHNNEVN”, the “soluble on expression in E. coli” value is listed as “not soluble”. Take “ENSHNKARTSPYPGSKVERSQVPNEKVGWLVEWQDYKPVEYTAVSVLAGPRWADPQISESNFSPKFNEKDGHVERKSKNGLYEIENGRPRNPAGRTGLVGRGLLGRWGPNHAADPIITRWKRDSSGNKIMHPVSGKHILQFVAIKRKDCGEWAIPGGMVDPGEKISATLKREFGEEALNSLQKTSAEKREIEEKLHKLFSQDHLVIYKGYVDDPRNTDNAWMETEAVNYHDETGEIMDNLMLEAGDDAGKVKWVDINDKLKLYASHSQFIKLVAEKRDAHWSEDSEADCHAL”: the “soluble on expression in E. coli” value is reported as “soluble”. “MGSDKIHHHHHHMSEPIIISIHNYKSAGVTFYSIIDRQFKKDEILNSDLLGMDDTYLMLSQADEKIINKIKIIHGHFPFGLDRLLPQKSTYITFLRNPIERLISDYYYCKDFALAHNHSYASTMSFKEYLSCSDILNIDNGQTRFVAGGENVPYGDNSIEMLNRAIENIEKRFSFVGITEKFDESLLIANAVFSWNQYYYTSKNITSSKSYDFDEETWELLRKRNFLDLQLYEYALKKHAGDLKKIPYVKLKMILLKTLKSLFVVTKSIYAPVKKRFFR”: the “soluble on expression in E. coli” value was “not soluble”. The value for “METQWTRMTANEAAEIIQHNDMVAFSGFTPAGSPKALPTAIARRANEQHEAKKPYQIRLLTGASISAAADDVLSDADAVSWRAPYQTSSGLRKKINQGAVSFVDLHLSEVAQMVNYGFFGDIDVAVIEASALAPDGRVWLTSGIGNAPTWLLRAKKVIIELNHYHDPRVAELADIVIPGAPPRRNSVSIFHAMDRVGTRYVQIDPKKIVAVVETNLPDAGNMLDKQNPMCQQIADNVVTFLLQEMAHGRIPPEFLPLQSGVGNINNAVMARLGENPVIPPFMMYSEVLQESVVHLLETGKISGASASSLTISADSLRKIYDNMDYFASRIVLRPQEISNNPEIIRRLGVIALNVGLEFDIYGHANSTHVAGVDLMNGIGGSGDFERNAYLSIFMAPSIAKEGKISTVVPMCSHVDHSEHSVKVIITEQGIADLRGLSPLQRARTIIDNCAHPMYRDYLHRYLENAPGGHIHHDLSHVFDLHRNLIATGSMLGLEHHHHHH” was “not soluble”; that for “MKKVVTVCPYCASGCKINLVVDNGKIVRAEAAQGKTNQGTLCLKGYYGWDFINDTQILTPRLKTPMIRRQRGGKLEPVSWDEALNYVAERLSAIKEKYGPDAIQTTGSSRGTGNETNYVMQKFARAVIGTNNVDCCARVCHGPSVAGLHQSVGNGAMSNAINEIDNTDLVFVFGYNPADSHPIVANHVINAKRNGAKIIVCDPRKIETARIADMHIALKNGSNIALLNAMGHVIIEENLYDKAFVASRTEGFEEYRKIVEGYTPESVEDITGVSASEIRQAARMYAQAKSAAILWGMGVTQFYQGVETVRSLTSLAMLTGNLGKPHAGVNPVRGQNNVQGACDMGALPDTYPGYQYVKDPANREKFAKAWGVESLPAHTGYRISELPHRAAHGEVRAAYIMGEDPLQTDAELSAVRKAFEDLELVIVQDIFMTKTASAADVILPSTSWGEHEGVFTAADRGFQRFFKAVEPKWDLKTDWQIISEIATRMGYPMHYNNTQEIWDELRHLCPDFYGATYEKMGELGFIQWPCRDTSDADQGTSYLFKEKFDTPNGLAQFFTCDWVAPIDKLTDEYPMVLSTVREVGHYSCRSMTGNCAALAALADEPGYAQINTEDAKRLGIEDEALVWVHSRKGKIITRAQVSDRPNKGAIYMTYQWWIGACNELVTENLSPITKTPEYKYCAVRVEPIADQRAAEQYVIDEYNKLKTRLREAALA” was “soluble”.

“MGSDKIHHHHHHMAKDIIKLGDVATYINGYAFKPEDRGEEGLQIIRIQDLTGNSYDLGFYNGKYPKKIEINDGDVLISWSASLGVYVWNGGKALLNQHIFKVKFDKVDIDKSYFVYAVRYKLNDMGKKTHGATMKHIVKRDFDATEIPYPPLKKQIEIAINLDKVLMVIKERKRELKLLDELIKARFVEMFGDCTNMISLSDLCLIITDGTHQSPKFQHEGIPFILVSNLSKNTVTYDTDKFISAETYKELYKRTPIEIGDILLSTVGSYGHPAVVVEDRKFLFQRHIAYLKPKSDILNSYYMHGALLSPGCQRQIEEKVKGIAQKTLNLSEIRKIRIPVPSLDLQKQYADFVHQVNKSKVAVQKALDETQILFDSLMQKYFG”: the “soluble on expression in E. coli” value is on record as “not soluble”. With “MEVFVFTPKGDLYKMPKGATVLDFAFAIHSKLGSKCIGAKVNGKNAQLKQTLNSGDQVEVMTSNTQTPKLEHHHHHH”, the “soluble on expression in E. coli” value is reported as “not soluble”. The value for “KDLKIVMLTDIHLGKNLHENFLDKLITKVNLQSPDMVVIVGDLIDTNPKDLKNYISKLNDFNSTYGTFYALGNHEYYHGINEVLDLLRKHTNMKILVNQNLDLGFIDIAGLGDLAGLDRGLYAPDLARIKVDLNTSKASILLTHQPKTALLYDLSDFDLVLSGHTHGGQIFPFMFLV” was “not soluble”; that for “KPAKPAAKSIVTLDVKPWDDETNLEEMVANVKAIEMEGLTWGAHQFIPIGFGIKKLQINCVVEDDKVSLDDLQQSIEEDEDHVQSTDIAAMQAL” was “soluble”; that for “MIPSQISFNTLPVNATYASETTVDTQKFSDILYSAGCSLKDMAYLSRCLASIHPTLAKNIYETENLSDQKLLHIDCRSTNEIKINIFFGQQREGLIEINSDTVIFSILSSLIDSAISKFQHQIPVNGSVNRELLYEDYTD” was “not soluble”. The value for “MSALNELLHDDAIDLNAHAETWQEAIAQAGALLEKTGAITSAYTESMISSVEEQGPYIVVAPGFAFAHARPSEAVKRTAIAWTRLDSPVEFHHSSNDPVTLVVALAAQDDQAHTAAMREIAQVLGSRRRDLDTVATVAELRGVLEASKRRKSRGVAGGATHVTAQDSVESKGKILTVCGNGLGTSLFLKNTLDQVLDTWGWGPFVSTEATDTISAKGRAKEADFLLTSEEIARTLGDVGVPVYVISNFTSEDEIDAALRELYDV” was “not soluble”; that for “MVMMSKQLTAQAPVDPIVLGKMGSSYGIRGWLRVFSSTEDAESIFDYQPWFIQKAGQWQQVQLESWKHHNQDMIIKLKGVDDRDAANLLTNCEIVVDSSQLPQLEEGDYYWKDLMGCQVVTTEGYDLGKVVDMMETGSNDVLVIKANLKDAFGIKERLVPFLDGQVIKKVDLTTRSIEVDWDPGFLEHHHHHH” was “soluble”.
